To fix the notation:
B1: ALDH8A1 (parent)
chain: FTGSQPTAERITQLSAPHCKKLSL
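Also: lentivirally expressed fusions sorted by FACS into six bins by GFP to DsRed ratio, PSI derived from sequencing read proportions per bin multiplied by bin number.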

The variants in this data set derive from B1. Briefly: protein stability index of a GFP-peptide fusion (GPS, HEK-293T) (PSI 1-6); higher = more stable. The note with it: c terminus: a fixed tail appended.
For the variant FTGSQPTAERITQLSAYHCKKLSL [P17Y], the protein stability index is 2.05. As for FTGSQPTAERITQLSANHCKKLSL [P17N], the protein stability index came out at 2.55. In the case of FTGSQPTAERITQLSAEHCKKLSL [P17E] it was 2.77. On to FTGSQPTAERITQLSATHCKKLSL [P17T], for which the protein stability index was 2.24. For FTGSQPTAERITQLSAQHCKKLSL [P17Q] the value was 2.48; for FTGSQPTAERITQLSALHCKKLSL [P17L], 1.78; for FTGSQPTAERITQLSAVHCKKLSL [P17V], 1.96. For FTGSQPTAERITQLSAFHCKKLSL [P17F] the value was 1.85; for FTGSQPTAERITQLSAAHCKKLSL [P17A], 2.49. For FTGSQPTAERITQLSAIHCKKLSL [P17I] the value was 2.38; for FTGSQPTAERITQLSAMHCKKLSL [P17M], 2.04; for FTGSQPTAERITQLSACHCKKLSL [P17C], 2.13.

For the variant FTGSQPTAERITQLSAGHCKKLSL [P17G], the protein stability index worked out at 2.25. In the case of FTGSQPTAERITQLSAHHCKKLSL [P17H], the protein stability index came to 2.34. For FTGSQPTAERITQLSAWHCKKLSL [P17W] the value was 2.46; for FTGSQPTAERITQLSADHCKKLSL [P17D], 2.8; for FTGSQPTAERITQLSARHCKKLSL [P17R], 2.49. In the case of FTGSQPTAERITQLSASHCKKLSL [P17S] it was 2.18; in that of FTGSQPTAERITQLSAKHCKKLSL [P17K], 2.12; in that of FTGSQPTAERITQLSNPHCKKLSL [A16N], 2.58. On to FTGSQPTAERITQLSYPHCKKLSL [A16Y], for which the protein stability index is 2.05. For FTGSQPTAERITQLSQPHCKKLSL [A16Q] the value was 2.1. For FTGSQPTAERITQLSDPHCKKLSL [A16D] the value was 2.52; for FTGSQPTAERITQLSIPHCKKLSL [A16I], 2.25.

Turning to FTGSQPTAERITQLSTPHCKKLSL [A16T], the protein stability index amounted to 2.63.

Consider FTGSQPTAERITQLSSPHCKKLSL [A16S], for which the protein stability index was 2.17. For FTGSQPTAERITQLSPPHCKKLSL [A16P] the value was 2.39; for FTGSQPTAERITQLSLPHCKKLSL [A16L], 2.17.

Regarding FTGSQPTAERITQLSWPHCKKLSL [A16W], the protein stability index was determined as 1.45. For FTGSQPTAERITQLSCPHCKKLSL [A16C] the value was 1.55; for FTGSQPTAERITQLSHPHCKKLSL [A16H], 2.13. As to FTGSQPTAERITQLSEPHCKKLSL [A16E], the protein stability index amounted to 2.26. For FTGSQPTAERITQLSVPHCKKLSL [A16V] the value was 2.27; for FTGSQPTAERITQLSMPHCKKLSL [A16M], 1.91; for FTGSQPTAERITQLSKPHCKKLSL [A16K], 2.03. As for FTGSQPTAERITQLSRPHCKKLSL [A16R], the protein stability index was determined as 2.43. For FTGSQPTAERITQLSFPHCKKLSL [A16F] the value was 2.33; for FTGSQPTAERITQLSGPHCKKLSL [A16G], 2.5; for FTGSQPTAERITNLSAPHCKKLSL [Q13N], 2.2. In the case of FTGSQPTAERITFLSAPHCKKLSL [Q13F] it was 2.94. In the case of FTGSQPTAERITWLSAPHCKKLSL [Q13W] it was 2.67; in that of FTGSQPTAERITELSAPHCKKLSL [Q13E], 2.5; in that of FTGSQPTAERITHLSAPHCKKLSL [Q13H], 2.24. As to FTGSQPTAERITRLSAPHCKKLSL [Q13R], the protein stability index is 1.91. For FTGSQPTAERITYLSAPHCKKLSL [Q13Y] the value was 1.97; for FTGSQPTAERITVLSAPHCKKLSL [Q13V], 1.69. In the case of FTGSQPTAERITSLSAPHCKKLSL [Q13S] it was 2.12.

FTGSQPTAERITMLSAPHCKKLSL [Q13M]: the protein stability index turned out to be 2.03. FTGSQPTAERITTLSAPHCKKLSL [Q13T]: the protein stability index stood at 2.3. For FTGSQPTAERITILSAPHCKKLSL [Q13I] the value was 1.35. Consider FTGSQPTAERITGLSAPHCKKLSL [Q13G], for which the protein stability index worked out at 2.31. In the case of FTGSQPTAERITCLSAPHCKKLSL [Q13C] it was 2; in that of FTGSQPTAERITDLSAPHCKKLSL [Q13D], 2.61; in that of FTGSQPTAERITLLSAPHCKKLSL [Q13L], 2.08.

Take FTGSQPTAERITALSAPHCKKLSL [Q13A]: the protein stability index stood at 2.31. In the case of FTGSQPTAERITKLSAPHCKKLSL [Q13K] it was 2.48; in that of FTGSQPTAERITPLSAPHCKKLSL [Q13P], 2.16. As for FTGSQPTAERIQQLSAPHCKKLSL [T12Q], the protein stability index was determined as 2.36. In the case of FTGSQPTAERIEQLSAPHCKKLSL [T12E] it was 3.25; in that of FTGSQPTAERIPQLSAPHCKKLSL [T12P], 2.32.

FTGSQPTAERIFQLSAPHCKKLSL [T12F]: the protein stability index worked out at 2.86.

Turning to FTGSQPTAERIWQLSAPHCKKLSL [T12W], the protein stability index stood at 3.11. In the case of FTGSQPTAERIVQLSAPHCKKLSL [T12V] it was 2.15; in that of FTGSQPTAERICQLSAPHCKKLSL [T12C], 1.83. For FTGSQPTAERINQLSAPHCKKLSL [T12N] the value was 2.25. In the case of FTGSQPTAERIMQLSAPHCKKLSL [T12M] it was 2; in that of FTGSQPTAERIAQLSAPHCKKLSL [T12A], 2.21. Take FTGSQPTAERIYQLSAPHCKKLSL [T12Y]: the protein stability index was found to be 2.69. For FTGSQPTAERIDQLSAPHCKKLSL [T12D] the value was 2.32. Turning to FTGSQPTAERIGQLSAPHCKKLSL [T12G], the protein stability index came out at 2.27. With FTGSQPTAERIIQLSAPHCKKLSL [T12I], the protein stability index was 1.51. For FTGSQPTAERIHQLSAPHCKKLSL [T12H] the value was 1.84; for FTGSQPTAERILQLSAPHCKKLSL [T12L], 1.79; for FTGSQPTAERISQLSAPHCKKLSL [T12S], 2.79. With FTGSQPTAERIKQLSAPHCKKLSL [T12K], the protein stability index worked out at 2.3. For FTGSQPTAERIRQLSAPHCKKLSL [T12R] the value was 2.89; for FTGSQPTAIRITQLSAPHCKKLSL [E9I], 2.23.

In the case of FTGSQPTATRITQLSAPHCKKLSL [E9T], the protein stability index amounted to 1.87. For FTGSQPTANRITQLSAPHCKKLSL [E9N] the value was 1.99. In the case of FTGSQPTAGRITQLSAPHCKKLSL [E9G] it was 2.1; in that of FTGSQPTAVRITQLSAPHCKKLSL [E9V], 1.46; in that of FTGSQPTAPRITQLSAPHCKKLSL [E9P], 2.05.

Take FTGSQPTAKRITQLSAPHCKKLSL [E9K]: the protein stability index is 2.06.

FTGSQPTAMRITQLSAPHCKKLSL [E9M]: the protein stability index turned out to be 1.37. FTGSQPTAYRITQLSAPHCKKLSL [E9Y]: the protein stability index was 3.14.

For the variant FTGSQPTAARITQLSAPHCKKLSL [E9A], the protein stability index was 1.96. For FTGSQPTASRITQLSAPHCKKLSL [E9S] the value was 1.86. For FTGSQPTAFRITQLSAPHCKKLSL [E9F] the value was 2.74; for FTGSQPTARRITQLSAPHCKKLSL [E9R], 1.96. In the case of FTGSQPTAQRITQLSAPHCKKLSL [E9Q] it was 2.09; in that of FTGSQPTALRITQLSAPHCKKLSL [E9L], 3.09; in that of FTGSQPTAWRITQLSAPHCKKLSL [E9W], 3.33. Turning to FTGSQPTAHRITQLSAPHCKKLSL [E9H], the protein stability index turned out to be 2.15.

In the case of FTGSQPTACRITQLSAPHCKKLSL [E9C], the protein stability index worked out at 2.14.

(Values after the supplement of paper PMC10567573.)
